The record followed here is paper PMC6278376, “Dynamics-Derived Insights into Complex Formation between the CXCL8 Monomer and CXCR1 N-Terminal Domain: An NMR Study” (Molecules, 2018).

The target of test [1] is T1, CXCL8 monomer (residues 1–66) (disulfides Cys9-Cys50 (printed) and Cys7-Cys34 (by convention), mature numbering; mature residue 1 = precursor 28 (offset +27), matching PDB 5WDZ entity 1 (66 aa); 15N-labelled for NMR). The test can be described thus: ITC; 890 μM CXCR1 N-domain peptide injected into 80 μM CXCL8 monomer; 50 mM sodium phosphate pH 6.0, 25 °C; single-binding site model. The following applies: both partners purified.
T1 sequence (chain, as listed by the source): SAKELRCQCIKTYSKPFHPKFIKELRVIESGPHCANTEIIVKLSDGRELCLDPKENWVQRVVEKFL

Test [2] has as its target T1, CXCL8 monomer (residues 1–66). The test can be described thus: NMR titration; 200 μM 15N-CXCL8 titrated with unlabeled CXCR1 peptide (2.5 mM stock, molar ratios 0 to 8.4); 2D 1H-15N HSQC; shift changes fit to a 1:1 model for KD; line shape analysis (Bloch–McConnell, two-site exchange) for koff, kon = koff/KD; 50 mM sodium phosphate pH 6.0, 30 °C. The note with it: both partners purified.

B1: CXCR1 N-domain peptide corresponding to the first 29 amino acids (29mer) (peptide, UniProt P25024 1-29, looked up)
chain: MSNITDPQMWDFDDLNFTGMPPADEDYSP
notes: CXCR1 receptor, N-terminal domain, first 29 amino acids (M1, S2 ... S28 named in the text); human by the discussion's contrast with the rabbit peptide; Recombinant peptide; 15N-labelled where it was the observed species in NMR, unlabelled otherwise; also called CXCR1 N-domain 29mer; CXCR1 N-terminal domain; source: E. coli BL21(DE3), purified
Regarding B1, in test [1], the Kd was determined as 8.4 ± 0.5 µM, the dH is -2.6 ± 0.2 kcal/mol and the “stoichiometry N” value was found to be 0.93 ± 0.03. The Kd in test [2] is around 5 µM.
